From patent US20240197828A1, “Chimeric molecule to treat sepsis and other inflammatory conditions” (THE FEINSTEIN INSTITUTES FOR MEDICAL RESEARCH, priority 2022, published 2024)

Target: T1, rhCIRP (Homo sapiens, UniProt Q14011)
T1 sequence (Q14011 1-172): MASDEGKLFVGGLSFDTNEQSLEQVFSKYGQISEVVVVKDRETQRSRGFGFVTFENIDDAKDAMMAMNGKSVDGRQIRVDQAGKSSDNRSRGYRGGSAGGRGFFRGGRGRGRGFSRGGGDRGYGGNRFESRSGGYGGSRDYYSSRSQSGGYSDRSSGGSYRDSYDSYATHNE
Assay: Biacore binding of recombinant human proteins (rhCIRP and rhMFG-E8)
Conditions: read-out: KD between rhCIRP and rhMFG-E8

- Kd: 29 nM
B1: rhMFG-E8: recombinant human MFG-E8 (protein)
chain: LDICSKNPCHNGGLCEEISQEVRGDVFPSYTCTCLKGYAGNHCETKCVEPLGLENGNIANSQIAASSVRVTFLGLQHWVPELARLNRAGMVNAWTPSSNDDNPWIQVNLLRRMWVTGVVTQGASRLASHEYLKAFKVAYSLNGHEFDFIHDVNKKHKEFVGNWNKNAVHVNLFETPVEAQYVRLYPTSCHTACTLRFELLGCELNGCANPLGLKNNSIPDKQITASSSYKTWGLHLFSWNPSYARLDKQGNFNAWVAGSYGNDQWLQVDLGSSKEVTGIITQGARNFGSVQFVASYKVAYSNDSANWTEYQDPRTGSSKIFPGNWDNHSHKKNLFETPILARYVRILPVAWHNRIALRLELLGC
